What all share (test): immunoprecipitation and Western blot
The target in test [1] is amyloid-β (Aβ) in brain tissue of Tg2576 mice (human).
The target in test [2] is amyloid-β (Aβ) secreted by 7PA2 cells.
In test [3] the target is amyloid-β (Aβ) secreted by mature Tg2576 primary cortical neurons (human).
Test [4] shares this target. This is another data set of the same source.

Read-outs that look alike come from different tables or passages of the source.

In general, stoichiometry N refers to a count of units in the complex or per binding partner.

Regarding “amyloid-β (Aβ) in brain tissue of Tg2576 mice (peptide)”, the stoichiometry N in test [1] was 2. In test [2], “amyloid-β (Aβ) secreted by 7PA2 cells (peptide)” registered a stoichiometry N of 2. As to “amyloid-β (Aβ) secreted by mature Tg2576 primary cortical neurons (peptide)”, the stoichiometry N in test [3] worked out at 3; in test [4] it was 2.

(Values after PMC3254782.)
